In patent US20240052048A1 one finds EC50 data, which are given here for one substance.

For this test, the target named is monkey BCMA on BCMA-CHO cells (cynomolgus monkey). The test is described as follows: flow cytometry (MFI) on CHO cells expressing monkey BCMA; EC50 table in the figure; fit value for a flat control curve. Background: In flow cytometry, cells or beads pass a laser one at a time.
Sequence of monkey BCMA on BCMA-CHO cells (cynomolgus monkey) (chain, as listed by the source): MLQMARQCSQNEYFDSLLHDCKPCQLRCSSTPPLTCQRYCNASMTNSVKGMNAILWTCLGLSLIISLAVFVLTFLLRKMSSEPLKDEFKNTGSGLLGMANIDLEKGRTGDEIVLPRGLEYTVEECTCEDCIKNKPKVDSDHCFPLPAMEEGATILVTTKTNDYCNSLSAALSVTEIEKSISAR

The term EC50 denotes the concentration at which the effect is half-maximal. Consider Irrelevant antibody, for which the EC50 turned out to be 0.357 µg/mL.
